For one test, the system named is spermatozoa. The note with it: inhibitors of PLA2; Roldan and Fragio 1993; Llanos et al 1993; cited from earlier work.
In test [1] the test system is sperm and oocytes. Briefly: In vitro fertilization (IVF), two-cell embryos scored at 24 h. Format: cell-based, mouse. The conditions noted are these: for comparison with mGX sPLA2 effect (FIG. 7): around 10 μM, 45 min during capacitation or 4 h after gamete mixing.
The test system of test [2] is Sperm cells from caudae epididymes. Briefly: Acrosome reaction assay (coomassie blue staining). The conditions noted are these: for ability to trigger acrosome reaction (AR) / AR induced above basal spontaneous level of AR: uncapacitated sperm; for ability to trigger acrosome reaction (AR): incubated 10 min with sPLA2 (200 nM in FIG. 2A; pro-mGX at 200 nM). Format: cell-based, mouse. How it is done:
Sperm cells from caudae epididymes were allowed to swim in M2 medium for 10 min. Then, sperms were incubated, if necessary, with different sPLA2 in M16 medium at 37° C. for 10 min. Cells were transferred in PBS solution and then fixed with 4% PFA solution for 2 min. Sperm was washed with 100 mM ammonium acetate for 2 min and wet-mounted on slides and allowed to air dry. Slides were then rinsed with water and stained with coomassie blue (0.22%) for 2 min and finally rinsed with water. Slides were counted immediately and 150 sperm cells were scored at least.
The rate of AR increase from 20%, corresponding to spontaneous acrosome-reacted sperm, to 60% in the presence of 200 nM active sPLA2. In order to better characterize the potency of such compounds to trigger AR, dose-response curves for mGX and mGIIA were realized (FIG. 2B).
Sperm were capacitated with 2% BSA in M16 medium, in a 5% CO2 incubator at 37° C. At 45 and 80 min, 200 nM of mGX was introduced in the capacitation medium and sperm were fixed 10 min later. The rates of acrosome-reacted sperm observed in the presence of sPLA2 were compared with control sperm capacitated during 55 or 90 min in the capacitation medium (FIG. 2C). […] Moreover, the difference between spontaneous AR and total rate, corresponding to the sPLA2-induced fraction, was around stable throughout the capacitation progress: ≈39%, ≈36% and ≈35% at 10, 55 and 90 min respectively. It is important to notice that a small fraction of sperm of around 20% was reluctant to spontaneous AR or sPLA2-induced AR even in the presence of a high level of spontaneous AR.

Test [3] deals with sperm and oocytes. Briefly: In vitro fertilization (IVF), two-cell embryos scored at 24 h. It counts as cell-based, mouse. The note with it: for rate of IVF (effect in words): OF1 sperm treated 10 min with 20 or 200 nM mGX. How it is done: Sperm cells, obtained by manual trituration of caudae epididymes from OF1 male mice, were allowed to swim in M2 medium for 10 min. Then, the sperm cells were transferred in M16 medium containing 2% BSA (Bovine Serum Albumen) and incubated 35 min for capacitation. After centrifugation, cells were then transferred in M16 medium and if necessary, incubated with 20 or 200 nM of mGX sPLA2 for 10 min. Sperm cells were centrifugated (1200 rpm, 5 min) and re-suspended in M16 medium to remove […] sPLA2 before to be used for in vitro fertilization experiment. All experiments were carried out at 37° C. Eggs were collected from mature OF1 females (6-weeks old) synchronized with 7.5 units of PMSG (pregnant mare serum gonadotrophin) and 7.5 units of hCG (human chorionic gonadotrophin) before collection.
IVF using standard protocols were carried out. Eggs were incubated with approximately 10^4 sperm cells, and unbound sperms were washed away after 4 hours of incubation. Twenty four hours after fertilization, the two-cell embryos stages (FIG. 4) were scored as an indication of successful fertilization (FIGS. 5 and 6).
In vitro fertilizations (IVF) were realized with sperm capacitated 35 min in 2% BSA and then treated 10 min with 20 or 200 nM mGX. Before treated sperm were introduced within oocytes, sperm were washed and centrifuged to remove sPLA2 in order to avoid artefact effects of sPLA2 on sperm-oocyte fusion (Riffo and Parraga, 1997). sPLA2 contaminant in the IVF medium was below 1 nM for sperm treated at 200 nM.

In a further test the test system is Sperm cells. Kind of test: Electron microscopy of sPLA2-induced acrosome reaction. It counts as cell-based, mouse. The note with it: uncapacitated sperm. How it is done: Sperm cells were fixed with 2.5% glutaraldehyde in 0.1 M cacodylate buffer pH 7.4 during 2 hours at room temperature. Cells were then washed with buffer and post fixed with 1% Osmium tetroxyde in the same buffer during 1 hour at 4° C. After extensive washing with water cells were then stained with 0.5% uranile acetate pH 4 overnight at 4° C. Cells were then dehydrated through graded alcohol (30%-60%-90%-100%-100%-100%) and infiltrate with a mix of 1/1 epon/alcohol 100% during 1 hour before several bath of fresh epon (Flukka) during 3 hours. Finally, cells were centrifugated and immersed in fresh Epon and polymerised during 3 days at 60° C. Ultrathin sections of the cell pellet were cut with an ultramicrotome (Leica). Sections were post-stained with 4% uranile acetate and 1% lead citrate before being observed in an electron microscope at 80 kV (JEOL 1200EX).
It was important to check with electron microscopy (EM) that sPLA2 induced a morphologically normal acrosome reaction. The morphological criteria by which an acrosome reaction is evaluated to be normal are relatively limited: first, the outer acrosomal membrane should present vesiculation, second, the plasma membrane should fuse with the outer acrosomal membrane and present a characteristic double hair pin shape at the base of the acrosome (Green, D. P. (1978) The induction of the acrosome reaction in guinea-pig sperm by the divalent metal cation ionophore A23187. J. Cell Sci., 32:137-51.:137-151.)
For these experiments, uncapacitated sperm was used in order to reduce the contribution of spontaneous AR and 200 nM sPLA2 to get maximum sPLA2-induced AR. Sperm were incubated 10 min with mGX sPLA2 or the calcium ionophore A23187 and then fixed. In the presence of A23187, all acrosome-reacted sperm presented complete AR, with the 3 morphological criteria, as described above.

“And” between values parts separate entries of the source, which are not always exact repeats. Identical values can stand only once. “Also recorded” adds a separate entry of the source.

Turning to `O=C(CBr)c1ccc(Br)cc1` [4-bromophenacyl bromide], the “effect on calcium-ionophore induced acrosome reaction” value with spermatozoa was “block”.

With `CCCCC/C=C\C/C=C\C/C=C\C/C=C\CCCC(=O)O` [arachidonic acid], the “comparison with mGX sPLA2 effect (FIG. 7)” value with sperm and oocytes [1] was “mimic mGX sPLA2”.

Regarding `CCN(CC)CCCC(C)Nc1c2ccc(Cl)cc2nc2ccc(OC)cc12` (centres unmarked) [mepacrine], the “effect on calcium-ionophore induced acrosome reaction” value in the test on spermatozoa is “block”.

Turning to Lysophosphocholine [LPC], in the test with sperm and oocytes [1] (LPC 1 μM during capacitation with LY329722 2 μM (FIG. 8)), the “rescue of fertilization decreased by LY329722” value is reported as “rescued”. Moreover, the “comparison with mGX sPLA2 effect (FIG. 7)” value in the test with sperm and oocytes [1] is “mimic mGX sPLA2”.

B1: mGV: Recombinant mouse group V secreted phospholipase A2 (protein, UniProt P97391 21-137, looked up)
Phospholipase A2 group V: GLLELKSMIEKVTGKNAFKNYGFYGCYCGWGGRGTPKDGTDWCCQMHDRCYGQLEEKDCAIRTQSYDYRYTNGLVICEHDSFCPMRLCACDRKLVYCLRRNLWTYNPLYQYYPNFLC
With B1, the “ability to trigger acrosome reaction (AR)” value (shortened to “ability … (AR)”) in test [2] was “trigger acrosome reaction”.

B2: mGX: Recombinant mouse group X secreted phospholipase A2 (protein, UniProt Q9QXX3 29-151, looked up)
Group 10 secretory …: GLLELAGTLDCVGPRSPMAYMNYGCYCGLGGHGEPRDAIDWCCYHHDCCYSRAQDAGCSPKLDRYPWKCMDHHILCGPAENKCQELLCRCDEELAYCLAGTEYHLKYLFFPSILCEKDSPKCN
For the molecule B2, the “rate of IVF (effect in words)” value in the test on sperm and oocytes [3] is recorded as “promotes fertilization”; with sperm and oocytes [3] (listed as mGX sPLA2), “increased”. The “fertilization outcome (2 cell embryo at 24 h post fertilization)” value in the test on sperm and oocytes [3] (sPLA2 at 200 nM (FIG. 7)) was “improve fertilization outcome”. In the test with sperm and oocytes [3] (sperm from OF1 males treated 10 min with 200 nM mGX, control 45% (44.0±8.9%)), the “rate of two cells embryos stage at 24 hours (IVF rate)” value is 65% and 65.4 ± 5.6%. In the test with Sperm cells (200 nM, 10 min), the “kinetic of induced AR compared with A23187” value is listed as “slower”. Besides, the “morphology of induced acrosome reaction (electron microscopy)” value with Sperm cells (incubated 10 min (200 nM sPLA2)) is reported as “normal morphological feature”. For the same molecule, the “ability of mGX to trigger AR with 2 mM Ni2+” value in test [2] (200 nM mGX, 2 mM Ni2+ in the bath, n=3) is “block”. For the same molecule, the “sPLA2-induced fraction (difference between total rate and spontaneous AR)” value is recorded as “≈ 39%” in test [2] (200 nM mGX, 10 min (non-capacitated sperm)); “≈ 36%” in test [2] (200 nM mGX, 55 min of capacitation in 2% BSA); “≈ 35%” in test [2] (200 nM mGX, 90 min of capacitation in 2% BSA). For the same molecule, the “ability of mGX to trigger AR without external calcium” value in test [2] (200 nM mGX, 10 min, external calcium removed, n=3) is given as “block”. Also, the “very low dose from which AR is triggered” value in test [2] (capacitated and uncapacitated sperm, in the absence of oocytes) turned out to be 0.2 nM. Moreover, the “total rate of acrosome-reacted sperm versus control” value in test [2] (capacitated sperm (2% BSA, 55 or 90 min), 200 nM mGX for the last 10 min) is “able to trigger acrosome reaction; also recorded: increased at all capacitation durations”. Further, the “AR induced above basal spontaneous level of AR” value in test [2] (0.2 nM sPLA2) was 15%; in test [2] (0.2 nM sPLA2, listed as mGX sPLA2) it was “around 20%”. In addition, the “ability … (AR)” value in test [2] is reported as “trigger acrosome reaction; also recorded: able to trigger AR”. Also, in the test with sperm and oocytes [1] (C57Bl/6 strain, mGX treated sperm (200 nM)), the “increase of fertilization rate versus non-treated sperm” value was 142%. For the same molecule, the “control IVF with sPLA2 present during sperm-oocyte incubation” value with sperm and oocytes [1] (sperm and oocytes incubated with 1 nM mGX) is “no difference was noticed”. Also, the “rate of two-cells embryos stage at 24 hours” value in the test with sperm and oocytes [1] (sperm from C57Bl/6 males treated with 200 nM mGX, control 8.2%) turned out to be 19.9%.

B3: pro-mGX: the inactive pro-enzyme (precursor molecule) of mGX (protein, UniProt Q9QXX3 18-151, looked up)
pro-form: EATRRSHVYKRGLLELAGTLDCVGPRSPMAYMNYGCYCGLGGHGEPRDAIDWCCYHHDCCYSRAQDAGCSPKLDRYPWKCMDHHILCGPAENKCQELLCRCDEELAYCLAGTEYHLKYLFFPSILCEKDSPKCN
modifications: pro-form
As to B3, the “ability … (AR)” value in test [2] is recorded as “unable to trigger AR”; in test [2] (listed as Pro-mGX), “unable to trigger sperm acrosome reaction”.

B4: mGIIA: Recombinant mouse group IIA secreted phospholipase A2 (protein, UniProt P31482 22-146, looked up)
Phospholipase A2, membrane …: NIAQFGEMIRLKTGKRAELSYAFYGCHCGLGGKGSPKDATDRCCVTHDCCYKSLEKSGCGTKLLKYKYSHQGGQITCSANQNSCQKRLCQCDKAAAECFARNKKTYSLKYQFYPNMFCKGKKPKC
Take B4: the “AR induced above basal spontaneous level of AR” value in test [2] (2 nM sPLA2) is “around 20%”. The “ability … (AR)” value in test [2] was “trigger acrosome reaction; also recorded: able to trigger AR”.
